Measurements reported in US20210171647A1 (WUXI BIOLOGICS SHANGHAI, published 2021).

How the values were obtained:
Assay in all cases: ELISA, antibody coated, OX40-ECD.His mutant supernatant; relative to silent alanine substitutions;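 note: captured OX40 mutant protein detected with HRP-labelled anti-His antibody, absorbance read-out, scaled to the mean signal of control mutants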
human OX40-ECD.His Q114A = target: T1, human OX40-ECD.His Q114A (human, UniProt P43489 29-214)
T1 construct: extracellular domain; not shown: C-terminal His-tag
T1 sequence (looked up): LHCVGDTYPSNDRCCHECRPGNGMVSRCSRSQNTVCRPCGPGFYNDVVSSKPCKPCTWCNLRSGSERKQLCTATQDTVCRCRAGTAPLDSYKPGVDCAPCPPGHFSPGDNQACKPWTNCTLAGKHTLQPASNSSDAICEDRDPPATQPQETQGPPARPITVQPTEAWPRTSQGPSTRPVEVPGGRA

human OX40-ECD.His S57A = target: T2, human OX40-ECD.His S57A (human, UniProt P43489 29-214)
T2 construct: extracellular domain; not shown: C-terminal His-tag
T2 sequence (looked up): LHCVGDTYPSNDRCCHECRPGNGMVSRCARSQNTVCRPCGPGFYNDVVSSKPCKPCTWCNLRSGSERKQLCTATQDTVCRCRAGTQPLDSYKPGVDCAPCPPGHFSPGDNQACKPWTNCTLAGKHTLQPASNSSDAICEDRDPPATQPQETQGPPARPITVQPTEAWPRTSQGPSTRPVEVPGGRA

human OX40-ECD.His S59A = target: T3, human OX40-ECD.His S59A (human, UniProt P43489 29-214)
T3 construct: extracellular domain; not shown: C-terminal His-tag
T3 sequence (looked up): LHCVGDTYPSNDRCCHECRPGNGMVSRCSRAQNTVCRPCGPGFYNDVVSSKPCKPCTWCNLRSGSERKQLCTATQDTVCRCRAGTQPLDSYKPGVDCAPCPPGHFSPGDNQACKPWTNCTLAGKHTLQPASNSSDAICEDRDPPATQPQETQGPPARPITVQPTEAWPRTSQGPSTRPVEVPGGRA

human OX40-ECD.His A158G = target: T4, human OX40-ECD.His A158G (human, UniProt P43489 29-214)
T4 construct: extracellular domain; not shown: C-terminal His-tag
T4 sequence (looked up): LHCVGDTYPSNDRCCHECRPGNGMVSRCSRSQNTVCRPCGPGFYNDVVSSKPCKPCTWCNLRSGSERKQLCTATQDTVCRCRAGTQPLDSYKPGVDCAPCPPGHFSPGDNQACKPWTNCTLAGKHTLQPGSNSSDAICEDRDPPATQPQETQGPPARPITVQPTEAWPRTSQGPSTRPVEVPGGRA

human OX40-ECD.His A150G = target: T5, human OX40-ECD.His A150G (human, UniProt P43489 29-214)
T5 construct: extracellular domain; not shown: C-terminal His-tag
T5 sequence (looked up): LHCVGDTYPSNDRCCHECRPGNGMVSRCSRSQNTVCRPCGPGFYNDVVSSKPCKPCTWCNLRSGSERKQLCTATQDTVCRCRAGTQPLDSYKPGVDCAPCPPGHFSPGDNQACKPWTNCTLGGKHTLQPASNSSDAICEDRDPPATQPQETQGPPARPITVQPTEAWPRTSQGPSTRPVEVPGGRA

human OX40-ECD.His G70A = target: T6, human OX40-ECD.His G70A (human, UniProt P43489 29-214)
T6 construct: extracellular domain; not shown: C-terminal His-tag
T6 sequence (looked up): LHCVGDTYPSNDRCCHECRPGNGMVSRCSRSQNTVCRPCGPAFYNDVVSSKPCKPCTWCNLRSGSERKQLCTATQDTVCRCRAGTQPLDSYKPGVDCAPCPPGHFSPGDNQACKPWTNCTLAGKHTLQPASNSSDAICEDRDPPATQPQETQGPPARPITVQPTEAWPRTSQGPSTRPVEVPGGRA

human OX40-ECD.His T85A = target: T7, human OX40-ECD.His T85A (human, UniProt P43489 29-214)
T7 construct: extracellular domain; not shown: C-terminal His-tag
T7 sequence (looked up): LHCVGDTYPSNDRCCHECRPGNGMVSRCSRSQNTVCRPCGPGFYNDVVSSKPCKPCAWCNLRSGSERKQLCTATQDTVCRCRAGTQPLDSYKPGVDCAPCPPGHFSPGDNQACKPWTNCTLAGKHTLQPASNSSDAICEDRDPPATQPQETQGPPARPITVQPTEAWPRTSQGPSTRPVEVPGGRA

human OX40-ECD.His P69A = target: T8, human OX40-ECD.His P69A (human, UniProt P43489 29-214)
T8 construct: extracellular domain; not shown: C-terminal His-tag
T8 sequence (looked up): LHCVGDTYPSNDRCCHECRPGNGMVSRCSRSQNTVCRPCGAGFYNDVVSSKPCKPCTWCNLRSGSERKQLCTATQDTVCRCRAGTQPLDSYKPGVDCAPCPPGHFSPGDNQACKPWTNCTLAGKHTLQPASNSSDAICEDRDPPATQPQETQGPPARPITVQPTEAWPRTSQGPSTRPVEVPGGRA

human OX40-ECD.His L116A = target: T9, human OX40-ECD.His L116A (human, UniProt P43489 29-214)
T9 construct: extracellular domain; not shown: C-terminal His-tag
T9 sequence (looked up): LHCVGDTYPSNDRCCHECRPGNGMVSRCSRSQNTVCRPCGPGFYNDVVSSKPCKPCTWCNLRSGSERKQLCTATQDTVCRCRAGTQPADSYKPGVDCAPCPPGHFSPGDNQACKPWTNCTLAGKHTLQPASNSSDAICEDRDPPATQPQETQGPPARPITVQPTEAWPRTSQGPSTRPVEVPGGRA

human OX40-ECD.His V123A = target: T10, human OX40-ECD.His V123A (human, UniProt P43489 29-214)
T10 construct: extracellular domain; not shown: C-terminal His-tag
T10 sequence (looked up): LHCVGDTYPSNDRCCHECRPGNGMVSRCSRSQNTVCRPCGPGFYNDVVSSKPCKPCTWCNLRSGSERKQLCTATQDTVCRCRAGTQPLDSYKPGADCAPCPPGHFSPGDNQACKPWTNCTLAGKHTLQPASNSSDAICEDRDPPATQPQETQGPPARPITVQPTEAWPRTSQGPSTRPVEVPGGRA

Fold Change (human OX40-ECD.His Q114A): 0.79
Fold Change (human OX40-ECD.His S57A): 0.963
Fold Change (human OX40-ECD.His S59A): 1
Fold Change (human OX40-ECD.His A158G): 1.01
Fold Change (human OX40-ECD.His A150G): 0.96
Fold Change (human OX40-ECD.His G70A): 0.511
Fold Change (human OX40-ECD.His T85A): 0.808
Fold Change (human OX40-ECD.His P69A): 0.987
Fold Change (human OX40-ECD.His L116A): 0.982
Fold Change (human OX40-ECD.His V123A): 1
B1: 1.134.9-u1-IgG1L (antibody, V domains shown)
VH: QVQLQESGPGLVKPSGTLSLTCAVSGGSISSYNWWSWVRQPPGKGLEWIGEIYHGGNTNYNPSLKSRVTMSVDNSKNQFSLKLSSVTAADTAVYYCARAPGDWGGSPYFDFWGQGTLVTVSS
VL: SSELTQDPAVSVALGQTVRITCQGDNLRTYYASWYQQKPGQAPILLIYGRNKRPSGIPDRFSGSSSGNTASLTITGAQAEDEAAYYCNSRDSSGNPVVFGGGTKLTVL
notes: fully human IgG1, lambda
